Data as given in patent US20180009871A1 (INTARCIA THERAPEUTICS, published 2018).
Where no end group is shown, it is not given here. [ ]: non-standard residue; d: D form. Aib = CC(C)(N)C(=O)O

B1: Compound A29 (peptide)
peptide: YSHGTFTSDYSKYLD[Aib]KRAQEFV[Aib]WLEDEPKSGAPPPS-OH
modifications: N-terminus assumed
SMILES: CC(C)C[C@H](NC(=O)[C@H](Cc1ccc(O)cc1)NC(=O)[C@H](CCCCN)NC(=O)[C@H](CO)NC(=O)[C@H](Cc1ccc(O)cc1)NC(=O)[C@H](CC(=O)O)NC(=O)[C@H](CO)NC(=O)[C@@H](NC(=O)[C@H](Cc1ccccc1)NC(=O)[C@@H](NC(=O)CNC(=O)[C@H](Cc1c[nH]cn1)NC(=O)[C@H](CO)NC(=O)[C@@H](N)Cc1ccc(O)cc1)[C@@H](C)O)[C@@H](C)O)C(=O)N[C@@H](CC(=O)O)C(=O)NC(C)(C)C(=O)N[C@@H](CCCCN)C(=O)N[C@@H](CCCNC(=N)N)C(=O)N[C@@H](C)C(=O)N[C@@H](CCC(N)=O)C(=O)N[C@@H](CCC(=O)O)C(=O)N[C@@H](Cc1ccccc1)C(=O)N[C@H](C(=O)NC(C)(C)C(=O)N[C@@H](Cc1c[nH]c2ccccc12)C(=O)N[C@@H](CC(C)C)C(=O)N[C@@H](CCC(=O)O)C(=O)N[C@@H](CC(=O)O)C(=O)N[C@@H](CCC(=O)O)C(=O)N1CCC[C@H]1C(=O)N[C@@H](CCCCN)C(=O)N[C@@H](CO)C(=O)NCC(=O)N[C@@H](C)C(=O)N1CCC[C@H]1C(=O)N1CCC[C@H]1C(=O)N1CCC[C@H]1C(=O)N[C@@H](CO)C(=O)O)C(C)C
B2: Compound A32 (peptide)
peptide: YTHGTFTSDYSKWLD[Aib]KRAQEFV[Aib]WLEDEPSSGAPPPS-OH
modifications: N-terminus assumed
SMILES: CC(C)C[C@H](NC(=O)[C@H](Cc1c[nH]c2ccccc12)NC(=O)[C@H](CCCCN)NC(=O)[C@H](CO)NC(=O)[C@H](Cc1ccc(O)cc1)NC(=O)[C@H](CC(=O)O)NC(=O)[C@H](CO)NC(=O)[C@@H](NC(=O)[C@H](Cc1ccccc1)NC(=O)[C@@H](NC(=O)CNC(=O)[C@H](Cc1c[nH]cn1)NC(=O)[C@@H](NC(=O)[C@@H](N)Cc1ccc(O)cc1)[C@@H](C)O)[C@@H](C)O)[C@@H](C)O)C(=O)N[C@@H](CC(=O)O)C(=O)NC(C)(C)C(=O)N[C@@H](CCCCN)C(=O)N[C@@H](CCCNC(=N)N)C(=O)N[C@@H](C)C(=O)N[C@@H](CCC(N)=O)C(=O)N[C@@H](CCC(=O)O)C(=O)N[C@@H](Cc1ccccc1)C(=O)N[C@H](C(=O)NC(C)(C)C(=O)N[C@@H](Cc1c[nH]c2ccccc12)C(=O)N[C@@H](CC(C)C)C(=O)N[C@@H](CCC(=O)O)C(=O)N[C@@H](CC(=O)O)C(=O)N[C@@H](CCC(=O)O)C(=O)N1CCC[C@H]1C(=O)N[C@@H](CO)C(=O)N[C@@H](CO)C(=O)NCC(=O)N[C@@H](C)C(=O)N1CCC[C@H]1C(=O)N1CCC[C@H]1C(=O)N1CCC[C@H]1C(=O)N[C@@H](CO)C(=O)O)C(C)C
B3: Compound A28 (peptide)
peptide: YSHGTFTSDYSKYLD[Aib]KRAQEFV[Aib]WLEDEGPSSGAPPPS-OH
modifications: N-terminus assumed
SMILES: CC(C)C[C@H](NC(=O)[C@H](Cc1ccc(O)cc1)NC(=O)[C@H](CCCCN)NC(=O)[C@H](CO)NC(=O)[C@H](Cc1ccc(O)cc1)NC(=O)[C@H](CC(=O)O)NC(=O)[C@H](CO)NC(=O)[C@@H](NC(=O)[C@H](Cc1ccccc1)NC(=O)[C@@H](NC(=O)CNC(=O)[C@H](Cc1c[nH]cn1)NC(=O)[C@H](CO)NC(=O)[C@@H](N)Cc1ccc(O)cc1)[C@@H](C)O)[C@@H](C)O)C(=O)N[C@@H](CC(=O)O)C(=O)NC(C)(C)C(=O)N[C@@H](CCCCN)C(=O)N[C@@H](CCCNC(=N)N)C(=O)N[C@@H](C)C(=O)N[C@@H](CCC(N)=O)C(=O)N[C@@H](CCC(=O)O)C(=O)N[C@@H](Cc1ccccc1)C(=O)N[C@H](C(=O)NC(C)(C)C(=O)N[C@@H](Cc1c[nH]c2ccccc12)C(=O)N[C@@H](CC(C)C)C(=O)N[C@@H](CCC(=O)O)C(=O)N[C@@H](CC(=O)O)C(=O)N[C@@H](CCC(=O)O)C(=O)NCC(=O)N1CCC[C@H]1C(=O)N[C@@H](CO)C(=O)N[C@@H](CO)C(=O)NCC(=O)N[C@@H](C)C(=O)N1CCC[C@H]1C(=O)N1CCC[C@H]1C(=O)N1CCC[C@H]1C(=O)N[C@@H](CO)C(=O)O)C(C)C
B4: Compound A31 (peptide)
peptide: YSHGTFTSDYSKYLD[Aib]KRAQEFV[Aib]WLEDEPESGAPPPS-OH
modifications: N-terminus assumed
SMILES: CC(C)C[C@H](NC(=O)[C@H](Cc1ccc(O)cc1)NC(=O)[C@H](CCCCN)NC(=O)[C@H](CO)NC(=O)[C@H](Cc1ccc(O)cc1)NC(=O)[C@H](CC(=O)O)NC(=O)[C@H](CO)NC(=O)[C@@H](NC(=O)[C@H](Cc1ccccc1)NC(=O)[C@@H](NC(=O)CNC(=O)[C@H](Cc1c[nH]cn1)NC(=O)[C@H](CO)NC(=O)[C@@H](N)Cc1ccc(O)cc1)[C@@H](C)O)[C@@H](C)O)C(=O)N[C@@H](CC(=O)O)C(=O)NC(C)(C)C(=O)N[C@@H](CCCCN)C(=O)N[C@@H](CCCNC(=N)N)C(=O)N[C@@H](C)C(=O)N[C@@H](CCC(N)=O)C(=O)N[C@@H](CCC(=O)O)C(=O)N[C@@H](Cc1ccccc1)C(=O)N[C@H](C(=O)NC(C)(C)C(=O)N[C@@H](Cc1c[nH]c2ccccc12)C(=O)N[C@@H](CC(C)C)C(=O)N[C@@H](CCC(=O)O)C(=O)N[C@@H](CC(=O)O)C(=O)N[C@@H](CCC(=O)O)C(=O)N1CCC[C@H]1C(=O)N[C@@H](CCC(=O)O)C(=O)N[C@@H](CO)C(=O)NCC(=O)N[C@@H](C)C(=O)N1CCC[C@H]1C(=O)N1CCC[C@H]1C(=O)N1CCC[C@H]1C(=O)N[C@@H](CO)C(=O)O)C(C)C
B5: Compound A30 (peptide)
peptide: YSHGTFTSDYSKYLD[Aib]KRAQEFV[Aib]WLEDEPSKGAPPPS-OH
modifications: N-terminus assumed
SMILES: CC(C)C[C@H](NC(=O)[C@H](Cc1ccc(O)cc1)NC(=O)[C@H](CCCCN)NC(=O)[C@H](CO)NC(=O)[C@H](Cc1ccc(O)cc1)NC(=O)[C@H](CC(=O)O)NC(=O)[C@H](CO)NC(=O)[C@@H](NC(=O)[C@H](Cc1ccccc1)NC(=O)[C@@H](NC(=O)CNC(=O)[C@H](Cc1c[nH]cn1)NC(=O)[C@H](CO)NC(=O)[C@@H](N)Cc1ccc(O)cc1)[C@@H](C)O)[C@@H](C)O)C(=O)N[C@@H](CC(=O)O)C(=O)NC(C)(C)C(=O)N[C@@H](CCCCN)C(=O)N[C@@H](CCCNC(=N)N)C(=O)N[C@@H](C)C(=O)N[C@@H](CCC(N)=O)C(=O)N[C@@H](CCC(=O)O)C(=O)N[C@@H](Cc1ccccc1)C(=O)N[C@H](C(=O)NC(C)(C)C(=O)N[C@@H](Cc1c[nH]c2ccccc12)C(=O)N[C@@H](CC(C)C)C(=O)N[C@@H](CCC(=O)O)C(=O)N[C@@H](CC(=O)O)C(=O)N[C@@H](CCC(=O)O)C(=O)N1CCC[C@H]1C(=O)N[C@@H](CO)C(=O)N[C@@H](CCCCN)C(=O)NCC(=O)N[C@@H](C)C(=O)N1CCC[C@H]1C(=O)N1CCC[C@H]1C(=O)N1CCC[C@H]1C(=O)N[C@@H](CO)C(=O)O)C(C)C

Biological target: human glucagon receptor (GCGR) (human, UniProt P47871 26-477)
Assay: cell-based or functional assay

Binder	hGCGR pEC50 (cAMP)
B1	11.1 pEC50
B2	12.5 pEC50
B3	12.2 pEC50
B4	11.7 pEC50
B5	10.9 pEC50

Biological target: human GLP-1 receptor (GLP-1R) (human, UniProt P43220 24-463)
Sequence (P43220 24-463): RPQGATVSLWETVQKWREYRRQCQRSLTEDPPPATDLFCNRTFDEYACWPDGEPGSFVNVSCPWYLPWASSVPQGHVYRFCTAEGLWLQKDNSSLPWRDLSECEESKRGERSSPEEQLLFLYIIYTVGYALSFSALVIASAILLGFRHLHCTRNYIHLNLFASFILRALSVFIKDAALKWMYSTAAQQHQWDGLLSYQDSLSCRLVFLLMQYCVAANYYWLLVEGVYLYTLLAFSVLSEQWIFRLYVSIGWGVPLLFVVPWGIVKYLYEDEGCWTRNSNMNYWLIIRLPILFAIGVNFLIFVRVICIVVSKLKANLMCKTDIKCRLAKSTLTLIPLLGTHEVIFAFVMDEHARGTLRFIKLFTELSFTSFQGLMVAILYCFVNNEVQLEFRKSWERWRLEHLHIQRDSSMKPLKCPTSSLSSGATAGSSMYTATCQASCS
Assay: cell-based or functional assay

Binder	hGLP1 pEC50 (cAMP)
B1	< 9 pEC50
B2	< 9 pEC50
B3	< 9 pEC50
B4	< 9 pEC50
B5	< 9 pEC50
